# Experimental data taken from article PMC10330843 (Cell, 2023).
# B1: recombinant full-length mouse ZBP1 (natural protein, UniProt Q9QY24 1-411, looked up)
# chain: MAEAPVDLSTGDNLEQKILQVLSDDGGPVKIGQLVKKCQVPKKTLNQVLYRLKKEDRVSSPEPATWSIGGAASGDGAPAIPENSSAQPSLDERILRFLEANGPHRALHIAKALGMTTAKEVNPLLYSMRNKHLLSYDGQTWKIYHSRQEGQDIAHSGVTQESPAIICQHNPVNMICQQGANSHISIANSNAIQIGHGNVIVREKACGEPGPRTSHPLPLAWDASAQDMPPVAHGAQYIYMDKSLLQQVQLGHHNEMSLVGDAGKHPSYSFSDSPPEVSTTTADPGASFNMQTFEPGPHPEGDTVQTVHIKSCFLEDATIGNGNKMTIHLRSKGEVMESGDSEEPKKEDTGTSSEATPPRSCQHTPSDSMLPTSELRAMALGDSSPQTTEPVLREHEVQDIESSQDTGLSKQ
# Target: recombinant full-length mouse cGAS (mouse, UniProt Q8C6L5 1-507)
# Test: co-IP
# Sequence of recombinant full-length mouse cGAS (Q8C6L5 whole entry): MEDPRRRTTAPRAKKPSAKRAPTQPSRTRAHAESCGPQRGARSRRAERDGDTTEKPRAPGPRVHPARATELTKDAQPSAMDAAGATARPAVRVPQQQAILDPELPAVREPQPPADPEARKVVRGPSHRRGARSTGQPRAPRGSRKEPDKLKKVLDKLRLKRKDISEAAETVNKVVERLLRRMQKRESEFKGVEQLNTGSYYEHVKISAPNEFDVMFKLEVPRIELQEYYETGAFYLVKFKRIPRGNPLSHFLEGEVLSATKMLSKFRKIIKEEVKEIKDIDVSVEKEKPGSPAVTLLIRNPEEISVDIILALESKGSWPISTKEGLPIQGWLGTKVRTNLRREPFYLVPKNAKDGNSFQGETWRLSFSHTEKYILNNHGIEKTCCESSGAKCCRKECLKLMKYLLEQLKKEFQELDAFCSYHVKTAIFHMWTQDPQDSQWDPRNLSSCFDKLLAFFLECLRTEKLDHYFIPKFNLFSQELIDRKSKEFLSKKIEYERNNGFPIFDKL
binder,measurement,value
B1,binding result,binds
